The values below come from PMC12408800.

The target of this assay is KhpB from Thermus thermophilus (Thermus thermophilus HB8). The assay is described as follows: SEC.

In turn, “KhpB from Thermus thermophilus (natural protein)” had a stoichiometry N of 2.
